19 sequences from the DeepSol protein solubility set can be followed below.

A short description of this data set: soluble on expression in E. coli; label from the status in PepcDB or PDB records.
“MGGIPDITPYPLTYSLGGVIPLSSVLEMLWVEKYRPRSLDDIVDQKHVVERLKQFVKQRNMPHLLFAGPPGTGKTTAAHALAHDLFGENYRQYMLELNASDERGINVIREKVKEFARSRTPPEIPFKIVLLDEADNMTSDAQQALRRLMELYSSVTRFILIANYPSKIIDPIQSRCAFFRFQPLSKQDVIERLRYIAENEGVDYEEEALDAIYEISEGDMRKAINVLQAASYLGKVTVDAVYRVVGMAKPREVREMLATALKGDFTAARSLLRKIMIEYGMSGEDVARQIHRELFSTELKMPEELRVLAADYLGEVHYRLVEGSDDDIQLSAFLAWLTMMSRKLEV”: the “soluble on expression in E. coli” value is “soluble”.

For the sequence “MEEKKEDKFILLKNLYEEWKDCTRCDLHKSRTRVVPGDGNPYSLLVFVGEAPGEEEDRQGKPFVGRAGQLLNRLIEEVLGMKREDVYITNVCKCRPPQNRKPTPIEMRACFPYLKKEIEIIQPKVICCLGATAGEGILGKSLRITKVRGQVFPYPYNPRIKVFLTYHPAYVLRNPKEETTIIKDFEKLKELLTQE”, the “soluble on expression in E. coli” value was “soluble”.

In the case of “MSKIRVHEYAKKHNISSKDLMTKLKEMNIEVSNHMTMLDDEVVNKLDNEYQAEKPSVADEFEVEEKVVRSKKNSNKKKKKGKGNEDKRQENFAGRQQTQTVETPDKITFSGSLTVGDLAKKLSKEPSEIIKKLFMLGIMATINQDLDKDTIELIANDYGIEVEEEVIVSETEFETFIDEQDDEENLKERPAVVTIMGHVDHGKTTLLDSIRNSKVTAGEAGGITQHIGAYQVELNDKKITFLDTPGHAAFTTMRARGAQVTDITIIVVAADDGVMPQTVEAINHAKAAGVPIIVAVNKMDKPAANPDRVMQELTEYELVPEAWGGDTIFVPISAIQGEGIDNLLEMILLISEVEEYKANPNRYATGTVIEAQLDKGKGTIATLLVQNGTLRVGDPIVVGTSFGRVRAMVSDIGRRVKVAGPSTPVEITGLNEVPQAGDRFMAFADEKKARQIGESRAQEALLAQRGEKSKLSLEDLFQQIQEGDVKEINLIVKADVQGSVEAMAASLRKIDVEGVKVKIIHTGVGAITESDIILASASNAIVIGFNVRPDVNAKRTAELENVDIRLHRIIYKVIEEIEAAMQGMLDPEFEEKVIGQAEVRQTFKVTKVGTIAGCYVTDGKITRDSGVRIIRDGVVIFEGQLDTLKRFKDDVKEVAQNYECGITIERYNDLKEGDIIEAYIMEEVKR”, the “soluble on expression in E. coli” value is given as “not soluble”.

With “MVSSQPKYDLIREVGRGSYGLVYEALVRRTGQRVAVKKIRCQAPENVELALREFWALSSIQSQHPNVIHLEECVLQRDGMVQRMLHGSSSVLYLP”, the “soluble on expression in E. coli” value is reported as “not soluble”.

Turning to “MGSDKIHHHHHHMNFLAHLHLADNSKTDLAANLAGDFAKGNIADHPKALQQGIWLHRQIDSLTDSHELTKELKAAFPKTLQRAAPILIDLAFDHMLAKYWEEYHHLSLPDFAQQAYLALSSAEQLPVNLSDLIIRMRQENWLIAYESREGLNQTIKAVSKRVSKPEIFDGAIDTVKRMDTEIEIAFRTFYPQLMAYSRIWTRQTPPEFL”, the “soluble on expression in E. coli” value is reported as “not soluble”.

As to “MAHTKKRIFDGLYAQLEETDGNVVLFSAKGEPSVIFEITNPVQQLCTDAEQYMLFQDVLSNVVQTLGEGYALQKQDVLCKQSYHHEVPEDAEFLTKSYFRYFEGREFTEIRTYLILTQEAQRSQFVQYDPKKWLDFHSKVSKVSDILKEKNIKYRKLSKEEVNEYCHRFMAFQFRHGPFSMTNFKASDEYLKIGDRVVRSYPLVDIDEINLPSLVKPYTQMNINGYGIATDLFSFLTSVPHADCVVFNQVVQIPNQRKLLRKLQAKAKRHGSMPDPSNKIAKEDIEEVLDRLAVDSTQLVYCNFNILVSCLVDKVTPVTSYLETKLYECGIMPSRTAYNQLELFTDSFPGNGYAFNPDYDLFLTLSDVALCFFFKEHLKGSEDTPLTTYYTDRQGLPVCIDITGKEGKVKMTDNANFFCIGPSGSGKSFHMNSVVRQLLEQNTDVVMVDTGDSYEGICGYYKGTYISYSKEKPISMNPFKVTKEEYDLNFGEKKNFLKSLIFLIFKGNEFPSKIEDMLINQTIVEYYEAYFHPFTKFTEKEREGLRQKLLVASKMEEDYDKFSHSMEDIDAQIREAEMDKQAESRALMLPAEARRLKLLRQCRSLYALAQDEAASKGEKERALQIIENYKKELYNNSMLIKIDKQIDHIEEQKRRLKVRVLSFNSYYEFALERIPQIVAQEKIQFNIRDFAAILKQFYRGGELEMTLNSDLNVNLFDEQFIVFEIDKIKDDPVLFPIVVLIIMDVFLQKMRIKKGRKALIIEEAWL”, the “soluble on expression in E. coli” value was “not soluble”.

Turning to “MTSYEEETDYRNVPRELLDNNIPMGRGMIKWAPFATLPEQFETIQQYIIDQNKITRPVLSDDQLAELNIRLHEALQYAQPVEVKFYNNGFVDSVRLTIYRIDAINYEIDGYVYNQQQRQKISIFDILDIVLLPLEHHHHHH”, the “soluble on expression in E. coli” value is “soluble”.

Take “MGSDKIHHHHHHMLDSYIKRIVIHQFSPNDTELLLSDRLVSITPRIDEYFRKKLAKVFSDEAKRGQFEANNTFFTTIGDDLLETSVTIAQLWKEAFVISEDQKTNDLVFVQFDKDGEPFFAFLRIALKEQFAHLSDNYEHPFTVTQNNLPSPTQTPDEALVINLKSGQYYLIEKRVKHNGSFANYFSEHLLKVTPEQSVKKSIKMIEQTAQKIAEHFNQDDFTFQSKMKSTLFKQLEADDVLSPEKLADQLFDDNLTARLTFVDQVKDVIPEPIKISDIEHSRQIKKLENQKLSLSNGIELTVPNAIYQDAEAVEFLLNDDGTYSILIKNIEDIKTK”: the “soluble on expression in E. coli” value is “not soluble”.

Turning to “SEQKSTASGTCGGKPAERGPLAGHMPSSRPHRVDFCWVPGSDPGTFDGSPWLLDRFLAQLGDYMSFHFEHYQDNISRVCEILRRLTGRAQAWAAPYLDGDLPLPDDYELFCQDLKEVVQDPNSFAEYHAVVTCPLPLASSQLPVAPQLPVVRQYLARFLEGLALDMGTAPRSLPAAMATPAVSGSNSVSRSALFEQQLTKESTPGPKEPPVLPSSTCSSKPGPVEPASSQPEEAAPTPVPRLSESANPPAQRPDPAHPGGPKPQKTEEEVLETEGDQEVSLGTPQEVVEAPETPGEPPLSPGF”, the “soluble on expression in E. coli” value was “soluble”.

On to “MTTVSEQANFTFSPEEVARFERDGYIGPVKIFEPEEMTRRWNIIRRQLLDRSLAIYPDSNGKANISNYDRHLDIDLLAEHIMRPEIVDRVGSLIGRNLLCWRSEFFPKYQGDEGTDWHQAATFAHATGKPQIIWPSDEGRPAFIGTITVWTAFTHSTEQNGCLQLMPGTHTSMNYDESKGMDYDADAINQREKDGIKRGFFGYDYRSLQKDPDWKPDESQAYPMVLKPGEAVIFWSNTMHASLPHTGSKTDYRMGFAARYVPTQVQVYPGTENLTEYGDGINLEKYGAVLTSGVDEYGHNRIARTSQRGYEFVPRQIPS”, for which the “soluble on expression in E. coli” value is on record as “soluble”.

As to “MTQTNNRLFDEIGRLMNDAAGAAQGVKREIDGVVRSQAEKILRDLDLVKREEFEAFKEMVRLTREENEALKARIAALEARQGGGSEPPTALA”, the “soluble on expression in E. coli” value was “not soluble”.

With “MAHHHHHHMPAAVPVRTPPYLVDVAANLTDCVFRGVDWKSNRLHDDDFDYVLARAQERNVQQIIITGTSLAQSVKAIALCRRYPDRRLLCTVGVHPAHCGEFLRPLDRDEVQRVAESASSVVMPHHEKSAAAMTAEREEAWAQERLDYLVDLATRNRDVVVAMGEIGIDYAEVACCPREVQEKYFARQLTAFAPLQLPFLFHSRACGMMFVSHLQDTWTRIASDAAATEAVADNAGASSPSPHAQLRGVVHSFNGTLEEQEALLSMGLYLSLNSSAFREASLAAQVALIPLGRLMFETDAPWCDVRSKDYGAQFVRTVFKTIKRKKPFEMGACLERRNEPCHLVQVMEEYLGCAKASATSPEDPLSRMDEATLVAAVYENCKRLFQL”, the “soluble on expression in E. coli” value is “not soluble”.

As for “MGKLALAAKITHVPSMYLSELPGKNHGCRQGAIDGHKEISKRCREMGVDTIIVFDTHWLVNSAYHINCADHFEGVYTSNELPHFIRDMTYNYEGNPELGQLIAEEALKLGVRAKAHNIPSLKLEYGTLVPMRYMNEDKHFKVVSISAFCTVHDFADSRKLGEAILKAIEQYDGTVAVLASGSLSHRFIDDQRAEEGMNSYTREFDRQMDERVVKLWREGQFKEFCNMLPEYADYCYGEGNMHDTVMLLGMLGWDKYDGKVEFITELFPSSGTGQVNAVFPLPA”, the “soluble on expression in E. coli” value was “not soluble”.

Take “MTQKLHIKTWGCQMNEYDSSKMADLLLSTHGLELTEAPEEADVLLLNTCSIREKAQEKVFHQLGRWKELKKNNPNLVIGVGGCVASQEGEHIRHRAPYVDIIFGPQTLHRLPEMINQIRGGKSSVVDVSFPEIEKFDRLPEPRAEGPTAFVSIMEGCNKYCTFCVVPYTRGEEVSRPVDDVLFEIAQLAEQGVREVNLLGQNVNAYRGPTHDGQICSFAELLRLVASIDGIDRLRFTTSHPIEFTDDIIDVYRDTPELVSFLHLPVQAGSDRVLTMMKRAHTALEYKSIIRKLRAVRPDIQISSDFIVGFPGETAEDFEQTMNLIAQVNFDMSFSFVYSARPGTPAADMPDDVTEDEKKQRLYVLQERINQQAAQFSRRMLGTEQRVLVEGPSKKDIMELTGRTETNRIVNFQGSPEMIGKFVDVKITDVYTNSLRGEVVRTEDEMGLRIAQSPQEVMNRTRKEDELGVGRYHGLEHHHHHH”: the “soluble on expression in E. coli” value is given as “soluble”.

As for “MILLPLHCGHVPCFPPLELPVTHVAVIGAGFSGLAAALRLAQAGAQVTVLDALDRPGGKAALGYDDFSSGPTVVTMPQIFAALHARLGWDAPALTPAHPTTTYHALSGRTFAPEALNVVGSLDPTMTQLSRAEGRRYRQLLFAARQMYSGAADTFLFAPPPTRTQLAQYALRAGRQAAPLTPLARYVRSGPFLTPFWLRFATYLGADPYRAPAVLHNIAWVELGDGIWHLPGGLLALAERLYAEALDRGVRFEFGIQVQHLSTHGGRVLGAHTSRGAFAADRWVSAADRALTLGWLGQDTPTTPRGVSGFALQLRLGEDLGQGHHIFWPADYAREWQDIRAGRLPSEPTLYLHLDGPRAFLLVNAPPDPRLGLSPERKADYARHLLQRLQSRFPLPVVEWQALAPADYARTGLGGALYGRAPHGLLGSLRPGWRLPQARNLVQVGGTVHPGGGVPLSLLSGWNGAGSLLGLDYDSLDGEKAFGKPAPAIKLEHHHHHH”, the “soluble on expression in E. coli” value is “not soluble”.

As for “MGHHHHHHGGHMSLITAEECRTYKEFVDLYQSYLYPLLGARLSRMYSPKNKVIIDMGTGPGYLSIQLAKRTNAHVHAVDINPAMHEIAQEEAKKSGVSSLISFDLEDVHHLSYADQYADFIVSYSCLHHWEDVVKGLKECYRVLAPGGKIVILDTFNPQGSHLEIMRKQIKEPEYFRFVREAFEESYSFEDIHQFVQDAGIPNYSLETFHFLPEDFIESLDELEDAPLWEQNDQSTDHEIESVTWMLTIEKEKEGALEGGS”, the “soluble on expression in E. coli” value is “soluble”.

As for “MSELPPLNTDTIWGILNDQIDDATVMQLVWYYLGYRYDATTEKWDNNAVPSEWRDEYPEPPNFLESRPATMKLTRSIPKQYKQITKEKLGFKGYKIGTFTPRETRRATSANWLLSYLQQQIDQGK”, the “soluble on expression in E. coli” value is “soluble”.

With “MGSDKIHHHHHHMELQDKYIRFDWAVKRLLRHKANFGVLEGFLTVLIGDEIHIVEILESEGNQQTENDKFNRVDIKALNSKNEIVIIEIQNTRELYYLERILYGVAKAITEHISLGETYYKVKKIYSISILYFDIGHGTDYLYHGQNIFKGVHTGDFLQVSTREKDAIVPRMPSEIYPEYFLIRVNEFNKVAVTPLEEWIEYLKTGIIRPDTTAPGLGEAREKLKYYSMTPQERHAYDEHLSALMIQNDVLDSAKLEGKIEGKIEGKIEGRLEGRAEGREEGREEGIKEGVLRNARRMKEKGFSTEDIMEITGLTFEEVSQL”, the “soluble on expression in E. coli” value is reported as “not soluble”.

For “MPVQPPSKDTEEMEAEGDSAAEMNGEEEESEEERSGSQTESEEESSEMDDEDYERRRSECVSEMLDLEKQFSELKEKLFRERLSQLRLRLEEVGAERAPEYTEPLGGLQRSLKIRIQVAGIYKGFCLDVIRNKYECELQGAKQHLESEKLLLYDTLQGELQERIQRLEEDRQSLDLSSEWWDDKLHARGSSRSWDSLPPSKRKKAPLVSGPYIVYMLQEIDILEDWTAIKKARAAVSPQKRKSDGP”, the “soluble on expression in E. coli” value is reported as “soluble”.
